{"source": "patent US20220023273A1", "about": "“METHODS FOR TREATING SYMPTOMS AND DISORDERS ASSOCIATED WITH LYSOSOMAL STORAGE DISEASES” (GENZYME CORPORATION, priority 2019, published 2022)", "origin": "cited, not measured here", "molecules": {"B1": {"name": "agalsidase beta: semisynthetic enzyme agalsidase beta (alpha-galactosidase), enzyme replacement therapy for Fabry disease (protein, UniProt P06280 32-429, looked up)", "Alpha-galactosidase A": "LDNGLARTPTMGWLHWERFMCNLDCQEEPDSCISEKLFMEMAELMVSEGWKDAGYEYLCIDDCWMAPQRDSEGRLQADPQRFPHGIRQLANYVHSKGLKLGIYADVGNKTCAGFPGSFGYYDIDAQTFADWGVDLLKFDGCYCDSLENLADGYKHMSLALNRTGRSIVYSCEWPLYMWPFQKPNYTEIRQYCNHWRNFADIDDSWKSIKSILDWTSFNQERIVDVAGPGGWNDPDMLVIGNFGLSWNQQVTQMALWAIMAAPLFMSNDLRHISPQAKALLQDKDVIAINQDPLGKQGYQLRQGDNFEVWERPLSGLAWAVAMINRQEIGGPRSYTIAVASLGKGVACNPACFITQLLPVKRKLGFYEWTSRLRSHINPTGTVLLQLENTMQMSLKDLL"}}, "test_system": "plasma GL-3", "conditions": "after 156 weeks; matched historical phase 3 trial patients treated with agalsidase beta; cited from earlier work", "data": [{"molecule": "B1", "values": [{"measurement": "Plasma GL-3 levels", "result": 4.44, "unit": "µg/mL"}]}]}
